Here are results for one protein from paper PMC6279372 (The Journal of Cell Biology, 2018).

The data set deals with the molecule itself. The data set is described as follows: nonreducing SDS-PAGE.

B1: His6-SipA^1-242 (domain or fragment)
chain: MVTSVRTQPPVIMPGMQTEIKTQATNLAANLSAVRESATATLSGEIKGPQLEDFPALIKQASLDALFKCGKDAEALKEVFTNSNNVAGKKAIMEFAGLFRSALNATSDSPEAKTLLMKVGAEYTAQIIKDGLKEKSAFGPWLPETKKAEAKLENLEKQLLDIIKNNTGGELSKLSTNLVMQEVMPYIASCIEHNFGCTLDPLTRSNLTHLVDKAAAKAVEALDMCHQKLTQEQGTSVGREAR
With B1, the binding result is “binds”.
